These results are taken from patent US12365732 (23ANDME, dated 2025).

Test [1] has as its target T1, hu-CD226 on Expi293 cells (human, UniProt Q15762 19-336).
T1 sequence: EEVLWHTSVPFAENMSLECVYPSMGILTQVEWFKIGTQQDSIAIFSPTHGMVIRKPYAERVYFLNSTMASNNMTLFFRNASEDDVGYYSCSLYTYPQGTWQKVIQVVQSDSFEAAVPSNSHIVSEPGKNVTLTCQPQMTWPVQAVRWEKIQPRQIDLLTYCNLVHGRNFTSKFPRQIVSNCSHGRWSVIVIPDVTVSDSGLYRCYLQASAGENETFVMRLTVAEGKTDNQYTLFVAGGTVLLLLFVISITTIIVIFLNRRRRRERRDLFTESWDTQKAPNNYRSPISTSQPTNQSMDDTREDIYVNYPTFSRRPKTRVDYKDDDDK
In words: FACS, CD226-transfected Expi293 cells. As for the experimental part:
In order to assess the generated antibodies for secondary binding to CD226, sequences encoding human CD226 ("hu-CD226") (SEQ ID NO: 482) and cyno CD226 ("cy-CD226") (SEQ ID NO: 483) (see Table 26 and Sequence Listing) were each cloned into pcDNA3.1 expression vector and Expi293 cells were separately transfected with plasmid containing either the hu-CD226 or cy-CD226 coding sequence. Starting concentrations of 1 μM and corresponding 3X serial dilutions of each antibody, NGS8, 10G1, and MABT398 (CD226 positive control, EMD Millipore, Burlington, MA, USA), were prepared for staining. Secondary antibodies employed included goat anti-mouse F(ab)2-PE (Invitrogen, Carlsbad, CA, USA) and goat anti-human F(ab)2-PE (Jackson ImmunoResearch, West Grove, PA, USA).
Samples, each containing one million transfected cells, were stained with primary antibody for 1 hr and secondary antibody for 30 min at 4° C. with agitation. Stained cells were washed in FACS buffer (1% BSA in PBS), fixed in 4% freshly prepared paraformaldehyde, and analyzed by flow cytometry. Ten thousand events were collected for each sample and curves, showing the fold change in CD226 binding, were separately plotted for hu-CD226 (FIG. 12A) and cy-CD226 (FIG. 12B) expressing cells.

The target of test [2] is T2, mo-CD96 (soluble, Table 5) (mouse, UniProt Q3U0X8 22-536, limits assumed).
T2 sequence (looked up): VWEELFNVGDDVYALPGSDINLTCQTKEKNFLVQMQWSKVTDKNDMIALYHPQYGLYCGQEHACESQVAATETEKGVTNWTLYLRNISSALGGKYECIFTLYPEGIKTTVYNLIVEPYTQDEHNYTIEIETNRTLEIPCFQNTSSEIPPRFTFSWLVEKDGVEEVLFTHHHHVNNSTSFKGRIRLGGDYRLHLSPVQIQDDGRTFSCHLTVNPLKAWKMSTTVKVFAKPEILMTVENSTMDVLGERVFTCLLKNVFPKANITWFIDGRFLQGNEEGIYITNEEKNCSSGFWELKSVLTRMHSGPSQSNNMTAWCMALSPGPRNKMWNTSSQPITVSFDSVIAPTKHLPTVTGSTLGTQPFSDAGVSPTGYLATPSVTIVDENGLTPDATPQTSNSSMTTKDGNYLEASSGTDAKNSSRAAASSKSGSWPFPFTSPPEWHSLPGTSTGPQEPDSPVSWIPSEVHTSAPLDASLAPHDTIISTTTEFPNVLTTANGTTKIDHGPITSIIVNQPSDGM
The experiment in a line: SPR 25C, IgG on Protein A, CD96 analyte. As to the method:
(§1) SPR measurement with a BIACORE™ 8K instrument was performed to determine the monovalent binding affinity of mAb1.v7 and h10G1 IgG to hu-CD96, cy-CD96, and mo-CD96. Briefly, antibodies were diluted at 0.5 µg/mL in HBS-P buffer (0.01 M HEPES pH 7.4, 0.15 M NaCl, 0.005% Surfactant P20) and applied to the Protein A chip at 30 µL/min flow rate for 60 s in flow cell 2 (FC2). Then 3-fold serial dilutions of hu-CD96, cy-CD96, or mo-CD96 in HBS-P buffer (0.01 M HEPES pH 7.4, 0.15 M NaCl, 0.005% surfactant P20) from (0.4 nM) to high (100 nM) were injected (flow rate: 30 µL/min) at 25° C. to both flow cell 1 (FC1) and flow cell 2 (FC2). The sensorgram was recorded and subject to reference and buffer subtraction before evaluating by BIACORE® 8K Evaluation Software (version 1.1.1.7442). Association rates ($kon$) and dissociation rates ($koff$) were calculated using a simple one-to-one Langmuir binding model.

For test [3], the target named is T3, hu-CD96 (soluble, isoform 2 extracellular domain) (human, UniProt P40200 22-516, biotinylated in Octet and blocking ELISA).
T3 construct: the assays name only hu-CD96; also called hCD96; biotinylated hu-CD96
T3 sequence: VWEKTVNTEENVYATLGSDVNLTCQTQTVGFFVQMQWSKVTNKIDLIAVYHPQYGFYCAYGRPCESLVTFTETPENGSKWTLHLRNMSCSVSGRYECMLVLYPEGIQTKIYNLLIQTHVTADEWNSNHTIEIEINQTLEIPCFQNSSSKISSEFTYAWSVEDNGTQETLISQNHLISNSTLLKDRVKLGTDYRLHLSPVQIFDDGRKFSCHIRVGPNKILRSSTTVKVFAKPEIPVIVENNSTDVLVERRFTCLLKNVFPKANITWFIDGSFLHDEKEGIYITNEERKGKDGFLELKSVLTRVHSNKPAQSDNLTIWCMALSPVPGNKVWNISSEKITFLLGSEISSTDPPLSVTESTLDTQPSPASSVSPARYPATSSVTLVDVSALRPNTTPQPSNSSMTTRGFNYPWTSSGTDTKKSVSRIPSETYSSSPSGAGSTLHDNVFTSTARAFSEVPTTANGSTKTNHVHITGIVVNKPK
The experiment in a line: SPR 25C, IgG on Protein A, CD96 analyte. As to the method: as §1

Test [4] concerns the target T3, hu-CD96 (soluble, isoform 2 …). In words: CD155 blocking ELISA.
The target is the same in test [5]. In words: BLI (Octet), biotin-CD96 on SA, Fab analyte.

B1: 10G1 (clone 10G1.3G8), purified hybridoma antibody (antibody, V domains shown)
VH: QIQLVQSGPELKKPGETVKISCKASGYPFTTYGMSWVKQAPGKGLKWMGWINTDSGVPTYADDFKGRFAFSLETSANTAYLQINSLKNEDAATYFCARNIYYGWGNFDYWGQGTILTVSS
VL: DILMTQSPTTLSVTPGETVSLSCRASQDIYRNLHWYQQKSQGTPRLLIKHASDSISGIPSRFTGSGSGTDFTLSINSVKPEDEGIYYCLQGYSMPYTFGGGTKLEIK
notes: murine hybridoma IgG
The EC50 is the midpoint of the concentration-response curve. Low readings indicate an effect from little substance, high ones a need for much substance. Regarding B1, in test [1], it took 232 nM to reach a half-maximal effect (EC50).

B2: h10G1 IgG (humanized 10G1) (antibody, V domains shown)
VH: EIQLVQSGSELKKPGASVKVSCKASGYPFTTYGMSWVRQAPGQGLEWMGWINTDSGVPTYADDFKGRFVFSLDTSVSTAYLQISSLKAEDTAVYFCARNIYYGWGNFDYWGQGTLVTVSS
VL: EIVMTQSPDFQSVTPKEKVTITCRASQDIYRNLHWYQQKPDQTPKLLIKHASDSISGIPSRFSGSGSGTDFTLTINSLEAEDAAAYYCLQGYSMPYTFGGGTKVEIKG
notes: human IgG1 N297G
With B2, the binding result in test [2] is recorded as “no binding (tested: 100 nM highest)”. In test [3], the “apparent Kd (pooled screen)” value worked out at 1.17 nM.

B3: mAb1.v7 Fab (Fab, V domains shown)
VH: EVQLVQSGAEVKKPGASVKVSCKASGFTFTNNWMHWVRQAPGQGLEWIGMIHPNSGITNINEKFKNRVTMTTDTSTSTAYMELRSLRSEDTAVYYCRSDGTYEGYFDYWGQGTLVTVSS
VL: DIQLTQSPSSLSASVGDRVTITCKASQNVGTAIVWYQQKPGKAPKVLIYSASTRYTGVPSRFSGSGSGTDFTLTISSLQPEDFATYYCQQYSSSPLTFGQGTKVEIK
Regarding B3, the “apparent IC50 (pooled screen)” value in test [4] was 0.74 nM. Further, in test [5], the “apparent Kd (pooled screen)” value is 76 nM.

B4: mAb1.v7 IgG (humanized 12F8) (antibody, V domains shown)
VH: EVQLVQSGAEVKKPGASVKVSCKASGFTFTNNWMHWVRQAPGQGLEWIGMIHPNSGITNINEKFKNRVTMTTDTSTSTAYMELRSLRSEDTAVYYCRSDGTYEGYFDYWGQGTLVTVSS
VL: DIQLTQSPSSLSASVGDRVTITCKASQNVGTAIVWYQQKPGKAPKVLIYSASTRYTGVPSRFSGSGSGTDFTLTISSLQPEDFATYYCQQYSSSPLTFGQGTKVEIKG
notes: human IgG1 N297G
As usually defined, the Kd is the concentration at which binding is half-saturated. High values mean lower affinity, low ones higher affinity. Turning to B4, the dissociation constant (Kd) in test [2] was around 386 nM; in test [3], 4.49 nM.
